Data reported in publication PMC5510989.

B1: MBP-DDX1 WT (DEAD-Box Protein 1 fused to maltose binding protein) (enzyme)
chain: MAAFSEMGVMPEIAQAVEEMDWLLPTDIQAESIPLILGGGDVLMAAETGSGKTGAFSIPVIQIVYETLKDQQEGKKGKTTIKTGASVLNKWQMNPYDRGSAFAIGSDGLCCQSREVKEWHGCRATKGLMKGKHYYEVSCHDQGLCRVGWSTMQASLDLGTDKFGFGFGGTGKKSHNKQFDNYGEEFTMHDTIGCYLDIDKGHVKFSKNGKDLGLAFEIPPHMKNQALFPACVLKNAELKFNFGEEEFKFPPKDGFVALSKAPDGYIVKSQHSGNAQVTQTKFLPNAPKALIVEPSRELAEQTLNNIKQFKKYIDNPKLRELLIIGGVAARDQLSVLENGVDIVVGTPGRLDDLVSTGKLNLSQVRFLVLDEADGLLSQGYSDFINRMHNQIPQVTSDGKRLQVIVCSATLHSFDVKKLSEKIMHFPTWVDLKGEDSVPDTVHHVVVPVNPKTDRLWERLGKSHIRTDDVHAKDNTRPGANSPEMWSEAIKILKGEYAVRAIKEHKMDQAIIFCRTKIDCDNLEQYFIQQGGGPDKKGHQFSCVCLHGDRKPHERKQNLERFKKGDVRFLICTDVAARGIDIHGVPYVINVTLPDEKQNYVHRIGRVGRAERMGLAISLVATEKEKVWYHVCSSRGKGCYNTRLKEDGGCTIWYNEMQLLSEIEEHLNCTISQVEPDIKVPVDEFDGKVTYGQKRAAGGGSYKGHVDILAPTVQELAALEKEAQTSFLHLGYLPNQLFRTF
B2: MBP-DDX1 L303E (enzyme)
chain: MAAFSEMGVMPEIAQAVEEMDWLLPTDIQAESIPLILGGGDVLMAAETGSGKTGAFSIPVIQIVYETLKDQQEGKKGKTTIKTGASVLNKWQMNPYDRGSAFAIGSDGLCCQSREVKEWHGCRATKGLMKGKHYYEVSCHDQGLCRVGWSTMQASLDLGTDKFGFGFGGTGKKSHNKQFDNYGEEFTMHDTIGCYLDIDKGHVKFSKNGKDLGLAFEIPPHMKNQALFPACVLKNAELKFNFGEEEFKFPPKDGFVALSKAPDGYIVKSQHSGNAQVTQTKFLPNAPKALIVEPSRELAEQTENNIKQFKKYIDNPKLRELLIIGGVAARDQLSVLENGVDIVVGTPGRLDDLVSTGKLNLSQVRFLVLDEADGLLSQGYSDFINRMHNQIPQVTSDGKRLQVIVCSATLHSFDVKKLSEKIMHFPTWVDLKGEDSVPDTVHHVVVPVNPKTDRLWERLGKSHIRTDDVHAKDNTRPGANSPEMWSEAIKILKGEYAVRAIKEHKMDQAIIFCRTKIDCDNLEQYFIQQGGGPDKKGHQFSCVCLHGDRKPHERKQNLERFKKGDVRFLICTDVAARGIDIHGVPYVINVTLPDEKQNYVHRIGRVGRAERMGLAISLVATEKEKVWYHVCSSRGKGCYNTRLKEDGGCTIWYNEMQLLSEIEEHLNCTISQVEPDIKVPVDEFDGKVTYGQKRAAGGGSYKGHVDILAPTVQELAALEKEAQTSFLHLGYLPNQLFRTF
B3: MBP-DDX1 G325E (enzyme)
chain: MAAFSEMGVMPEIAQAVEEMDWLLPTDIQAESIPLILGGGDVLMAAETGSGKTGAFSIPVIQIVYETLKDQQEGKKGKTTIKTGASVLNKWQMNPYDRGSAFAIGSDGLCCQSREVKEWHGCRATKGLMKGKHYYEVSCHDQGLCRVGWSTMQASLDLGTDKFGFGFGGTGKKSHNKQFDNYGEEFTMHDTIGCYLDIDKGHVKFSKNGKDLGLAFEIPPHMKNQALFPACVLKNAELKFNFGEEEFKFPPKDGFVALSKAPDGYIVKSQHSGNAQVTQTKFLPNAPKALIVEPSRELAEQTLNNIKQFKKYIDNPKLRELLIIEGVAARDQLSVLENGVDIVVGTPGRLDDLVSTGKLNLSQVRFLVLDEADGLLSQGYSDFINRMHNQIPQVTSDGKRLQVIVCSATLHSFDVKKLSEKIMHFPTWVDLKGEDSVPDTVHHVVVPVNPKTDRLWERLGKSHIRTDDVHAKDNTRPGANSPEMWSEAIKILKGEYAVRAIKEHKMDQAIIFCRTKIDCDNLEQYFIQQGGGPDKKGHQFSCVCLHGDRKPHERKQNLERFKKGDVRFLICTDVAARGIDIHGVPYVINVTLPDEKQNYVHRIGRVGRAERMGLAISLVATEKEKVWYHVCSSRGKGCYNTRLKEDGGCTIWYNEMQLLSEIEEHLNCTISQVEPDIKVPVDEFDGKVTYGQKRAAGGGSYKGHVDILAPTVQELAALEKEAQTSFLHLGYLPNQLFRTF
B4: MBP-DDX1 L322E (enzyme)
chain: MAAFSEMGVMPEIAQAVEEMDWLLPTDIQAESIPLILGGGDVLMAAETGSGKTGAFSIPVIQIVYETLKDQQEGKKGKTTIKTGASVLNKWQMNPYDRGSAFAIGSDGLCCQSREVKEWHGCRATKGLMKGKHYYEVSCHDQGLCRVGWSTMQASLDLGTDKFGFGFGGTGKKSHNKQFDNYGEEFTMHDTIGCYLDIDKGHVKFSKNGKDLGLAFEIPPHMKNQALFPACVLKNAELKFNFGEEEFKFPPKDGFVALSKAPDGYIVKSQHSGNAQVTQTKFLPNAPKALIVEPSRELAEQTLNNIKQFKKYIDNPKLRELEIIGGVAARDQLSVLENGVDIVVGTPGRLDDLVSTGKLNLSQVRFLVLDEADGLLSQGYSDFINRMHNQIPQVTSDGKRLQVIVCSATLHSFDVKKLSEKIMHFPTWVDLKGEDSVPDTVHHVVVPVNPKTDRLWERLGKSHIRTDDVHAKDNTRPGANSPEMWSEAIKILKGEYAVRAIKEHKMDQAIIFCRTKIDCDNLEQYFIQQGGGPDKKGHQFSCVCLHGDRKPHERKQNLERFKKGDVRFLICTDVAARGIDIHGVPYVINVTLPDEKQNYVHRIGRVGRAERMGLAISLVATEKEKVWYHVCSSRGKGCYNTRLKEDGGCTIWYNEMQLLSEIEEHLNCTISQVEPDIKVPVDEFDGKVTYGQKRAAGGGSYKGHVDILAPTVQELAALEKEAQTSFLHLGYLPNQLFRTF
B5: MBP-DDX1 K52N (enzyme)
chain: MAAFSEMGVMPEIAQAVEEMDWLLPTDIQAESIPLILGGGDVLMAAETGSGNTGAFSIPVIQIVYETLKDQQEGKKGKTTIKTGASVLNKWQMNPYDRGSAFAIGSDGLCCQSREVKEWHGCRATKGLMKGKHYYEVSCHDQGLCRVGWSTMQASLDLGTDKFGFGFGGTGKKSHNKQFDNYGEEFTMHDTIGCYLDIDKGHVKFSKNGKDLGLAFEIPPHMKNQALFPACVLKNAELKFNFGEEEFKFPPKDGFVALSKAPDGYIVKSQHSGNAQVTQTKFLPNAPKALIVEPSRELAEQTLNNIKQFKKYIDNPKLRELLIIGGVAARDQLSVLENGVDIVVGTPGRLDDLVSTGKLNLSQVRFLVLDEADGLLSQGYSDFINRMHNQIPQVTSDGKRLQVIVCSATLHSFDVKKLSEKIMHFPTWVDLKGEDSVPDTVHHVVVPVNPKTDRLWERLGKSHIRTDDVHAKDNTRPGANSPEMWSEAIKILKGEYAVRAIKEHKMDQAIIFCRTKIDCDNLEQYFIQQGGGPDKKGHQFSCVCLHGDRKPHERKQNLERFKKGDVRFLICTDVAARGIDIHGVPYVINVTLPDEKQNYVHRIGRVGRAERMGLAISLVATEKEKVWYHVCSSRGKGCYNTRLKEDGGCTIWYNEMQLLSEIEEHLNCTISQVEPDIKVPVDEFDGKVTYGQKRAAGGGSYKGHVDILAPTVQELAALEKEAQTSFLHLGYLPNQLFRTF

Target: HIV-1 Rev (Regulator of Expression of Virion), Alexa-labelled (HIV-1 isolate BH10)
Experiment: fluorescence polarisation

“MBP-DDX1 DEAD N-term + SPRY (domain or fragment)” and B1 are within 1.5-fold of each other in Kd: 0.043 µM for the first, 0.059 µM for the second.

Compared with B2, B3 is lower in Kd: over 0.7 µM for the first, 0.029 µM for the second.

Compared with B4, B5 is lower in Kd: over 0.5 µM for the first, 0.065 µM for the second. The second binds more tightly here.
